What was measured:
Flag-TRAF6 = molecular target: T1, Flag-TRAF6 (UniProt Q9Y4K3 1-522); experiment: coimmunoprecipitation from transfected 293 cells: IP anti-T7, immunoblot anti-Flag
T1 construct: The anti-TRAF6C peptide covers amino acids 497 to 522, which fits the 522-residue human protein; also called Flag-tagged TRAF6; 2Flag-TRAF6
T1 sequence (looked up): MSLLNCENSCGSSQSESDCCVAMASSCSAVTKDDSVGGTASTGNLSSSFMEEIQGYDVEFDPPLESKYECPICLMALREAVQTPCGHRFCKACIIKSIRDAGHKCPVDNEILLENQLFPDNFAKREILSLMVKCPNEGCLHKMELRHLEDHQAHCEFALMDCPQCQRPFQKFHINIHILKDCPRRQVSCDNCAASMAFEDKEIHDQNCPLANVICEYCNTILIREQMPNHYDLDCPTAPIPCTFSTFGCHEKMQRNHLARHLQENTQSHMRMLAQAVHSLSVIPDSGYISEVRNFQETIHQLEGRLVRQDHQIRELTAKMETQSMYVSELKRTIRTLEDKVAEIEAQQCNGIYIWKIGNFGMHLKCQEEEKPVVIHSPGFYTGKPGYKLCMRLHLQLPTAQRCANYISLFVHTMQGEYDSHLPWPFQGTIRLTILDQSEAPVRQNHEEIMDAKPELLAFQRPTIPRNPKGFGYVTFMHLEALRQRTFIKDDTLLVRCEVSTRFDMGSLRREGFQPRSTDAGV
Description: (§1) (A) show an association of TAB2 with TRAF8 in mammalian cells. 293 cells were transiently transfected with an expression vector for 2Flag-TRAF6 in combination with empty vector (−) or with expression vectors for T7-TAB2-Full length (Full) (Full), T7-TAB2C (C), or T7-TAB2N (N) as indicated. Cell extracts were immunoprecipitated (IP) with anti-T7 (7) or mouse IgG (C). Coprecipitated Flag-TRAF6 was detected by immunoblotting (IB) with anti-Flag (upper panel, left). The amounts of immunoprecipitated T7-TAB2 proteins were determined with anti-T7 (lower panel). Whole cell extracts were immunoblotted with anti-Flag to determine total amounts of Flag-TRAF6 (upper panel, right).
The present inventors therefore determined whether TAB2 could interact with TRAF6 (FIG. 3A). T7-TAB2 was coexpressed with Flag-tagged TRAF6 in 293 cells and immunoprecipitated with anti-T7 antibody. The immune complexes were subjected to immunoblotting with a monoclonal antibody to Flag. TAB2 efficiently precipitated with TRAF6 (lane 4). To determine which domain of TAB2 is responsible for its TRAF6 association, the inventors tested whether TAB2N or TAB2C is able to bind to TRAF6, using the same experimental procedure. […] Thus, the C-terminal domain of TAB2 is required for TRAF6 binding.

HA-TAK1 = molecular target: T2, HA-TAK1 (UniProt Q62073 1-579, limits assumed); experiment: coimmunoprecipitation from transfected 293 cells: IP anti-T7, immunoblot anti-HA
T2 construct: I recall the cited Yamaguchi 1995 clone as mouse TAK1 (Q62073); human TAK1 is O43318; also called HA-tagged TAK1 protein
T2 sequence (looked up): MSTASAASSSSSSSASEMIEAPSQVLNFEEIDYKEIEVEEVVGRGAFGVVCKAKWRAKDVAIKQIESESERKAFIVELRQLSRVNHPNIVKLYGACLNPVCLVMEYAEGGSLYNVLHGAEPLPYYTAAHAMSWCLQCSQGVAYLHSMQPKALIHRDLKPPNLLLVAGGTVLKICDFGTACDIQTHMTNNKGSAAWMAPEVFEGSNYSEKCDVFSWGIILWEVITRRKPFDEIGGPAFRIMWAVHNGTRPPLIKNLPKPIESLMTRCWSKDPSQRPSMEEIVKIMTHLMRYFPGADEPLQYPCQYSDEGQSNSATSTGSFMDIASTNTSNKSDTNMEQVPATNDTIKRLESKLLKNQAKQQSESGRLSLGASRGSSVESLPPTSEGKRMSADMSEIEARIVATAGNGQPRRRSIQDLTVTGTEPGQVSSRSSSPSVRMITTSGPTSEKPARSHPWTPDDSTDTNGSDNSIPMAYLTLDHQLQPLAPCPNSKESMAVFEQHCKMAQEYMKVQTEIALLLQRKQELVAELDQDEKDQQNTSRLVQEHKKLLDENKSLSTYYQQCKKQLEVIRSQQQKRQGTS
Experimental: as §1, with “293” for “(A) show an association of TAB2 with TRAF8 in mammalian cells. 293”, “HA-TAK1” for “2Flag-TRAF6”, “length” for “length (Full)”, “HA-TAK1” for “Flag-TRAF6”, “anti-HA” for “anti-Flag”, “right). Schematic representation of various TAB2 constructs is shown in the lower part. The coiled-coil regions are indicated by solid boxes.” for “right).”

binding result (Flag-TRAF6): no binding | binding result (HA-TAK1): no binding
B1: T7-TAB2N (other)
chain: MASMTGGQQMGMAQGSHQIDFQVLHDLRQKFPEVPEVVVSRCMLQNNNNLDACCAVLSQESTRYLYGEGDLNFSDDSGISGLRNHMTSLNLDLQSQNIYHHGREGSRMNGSRTLTHSISDGQLQGGQSNSELFQQEPQTAPAQVPQGFNVFGMSSSSGASNSAPHLGFHLGSKGTSSLSQQTPRFNPIMVTLAPNIQTGRNTPTSLHIHGVPPPVLNSPQGNSIYIRPYITTPGGTTRQTQQHSGWVSQFNPMNPQQVYQPSQPGPWTTCPASNPLSHTSSQQPNQQGHQTSHVYMPISSPTTSQPPTIHSSGSSQSSAHSQYNIQNISTGPRKNQIEIKLEPPQRNNSSKLRSSGPRTSSTSSSVNSQTLNRNQPTVYIAASPPNTDELMSRSQPKVYISANAATGDEQV
notes: Expressed in 293 cells; also called N (1-400)

Source: patent publication US20030040050A1 (published 2003)
